This passage reports EC50 and Kd results from the supplement of paper PMC6379048.

Data set [1] concerns the target T1, NKRF (UniProt O15226).
T1 sequence: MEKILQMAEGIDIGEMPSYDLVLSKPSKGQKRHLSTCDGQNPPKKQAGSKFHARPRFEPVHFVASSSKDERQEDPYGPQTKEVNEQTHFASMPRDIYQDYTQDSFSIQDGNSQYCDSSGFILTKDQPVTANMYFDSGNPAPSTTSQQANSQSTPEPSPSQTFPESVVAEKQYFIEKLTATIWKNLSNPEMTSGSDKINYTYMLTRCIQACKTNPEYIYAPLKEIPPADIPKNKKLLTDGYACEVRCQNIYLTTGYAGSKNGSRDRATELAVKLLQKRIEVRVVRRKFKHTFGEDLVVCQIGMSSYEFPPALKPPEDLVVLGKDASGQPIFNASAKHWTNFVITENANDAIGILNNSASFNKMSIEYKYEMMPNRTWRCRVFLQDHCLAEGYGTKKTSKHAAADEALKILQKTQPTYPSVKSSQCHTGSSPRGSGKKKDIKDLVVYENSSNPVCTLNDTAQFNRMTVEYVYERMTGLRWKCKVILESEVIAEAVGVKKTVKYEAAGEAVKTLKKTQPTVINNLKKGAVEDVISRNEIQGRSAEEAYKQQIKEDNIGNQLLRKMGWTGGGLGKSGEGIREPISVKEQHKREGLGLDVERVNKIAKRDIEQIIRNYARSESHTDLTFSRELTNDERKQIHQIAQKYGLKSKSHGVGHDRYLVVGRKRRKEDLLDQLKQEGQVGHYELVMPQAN
The experiment in a line: EC50 of free RNA motif oligo competing protein binding to immobilised probe. The method in brief:
(§1)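 HEK293-FT lysate (2.5 mg protein/well) was pre-incubated 1 h at 4°C with free RNA oligos (0 nM to 30 μM), then 30 min at 4°C with the same 5′-amino-C6 oligos coupled to NHS-Sepharose beads. Bound proteins were quantified by label-free LC-MS/MS in three biological replicates and two independent experiments, and normalised to the water control. EC50 came from a four-parameter log-logistic fit; Kd is EC50 times a protein-dependent depletion factor.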

Data set [2] addresses T2, CELF1 (UniProt Q92879).
T2 sequence: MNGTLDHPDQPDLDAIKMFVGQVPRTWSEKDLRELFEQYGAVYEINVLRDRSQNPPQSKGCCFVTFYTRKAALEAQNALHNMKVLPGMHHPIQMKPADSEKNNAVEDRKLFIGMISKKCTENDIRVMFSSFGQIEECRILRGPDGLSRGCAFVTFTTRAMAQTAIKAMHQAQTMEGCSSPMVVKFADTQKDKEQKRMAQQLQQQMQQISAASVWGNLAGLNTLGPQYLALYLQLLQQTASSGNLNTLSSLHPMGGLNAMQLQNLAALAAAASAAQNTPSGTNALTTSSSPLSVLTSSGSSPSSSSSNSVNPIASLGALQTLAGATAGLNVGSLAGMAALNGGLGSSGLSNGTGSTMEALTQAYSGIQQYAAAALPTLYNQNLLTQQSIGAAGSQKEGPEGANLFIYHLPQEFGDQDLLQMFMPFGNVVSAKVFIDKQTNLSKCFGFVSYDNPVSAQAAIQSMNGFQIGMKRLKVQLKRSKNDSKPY
The description is as above. Summed up:
as §1

Data set [3] addresses T3, AQR (UniProt O60306).
T3 sequence: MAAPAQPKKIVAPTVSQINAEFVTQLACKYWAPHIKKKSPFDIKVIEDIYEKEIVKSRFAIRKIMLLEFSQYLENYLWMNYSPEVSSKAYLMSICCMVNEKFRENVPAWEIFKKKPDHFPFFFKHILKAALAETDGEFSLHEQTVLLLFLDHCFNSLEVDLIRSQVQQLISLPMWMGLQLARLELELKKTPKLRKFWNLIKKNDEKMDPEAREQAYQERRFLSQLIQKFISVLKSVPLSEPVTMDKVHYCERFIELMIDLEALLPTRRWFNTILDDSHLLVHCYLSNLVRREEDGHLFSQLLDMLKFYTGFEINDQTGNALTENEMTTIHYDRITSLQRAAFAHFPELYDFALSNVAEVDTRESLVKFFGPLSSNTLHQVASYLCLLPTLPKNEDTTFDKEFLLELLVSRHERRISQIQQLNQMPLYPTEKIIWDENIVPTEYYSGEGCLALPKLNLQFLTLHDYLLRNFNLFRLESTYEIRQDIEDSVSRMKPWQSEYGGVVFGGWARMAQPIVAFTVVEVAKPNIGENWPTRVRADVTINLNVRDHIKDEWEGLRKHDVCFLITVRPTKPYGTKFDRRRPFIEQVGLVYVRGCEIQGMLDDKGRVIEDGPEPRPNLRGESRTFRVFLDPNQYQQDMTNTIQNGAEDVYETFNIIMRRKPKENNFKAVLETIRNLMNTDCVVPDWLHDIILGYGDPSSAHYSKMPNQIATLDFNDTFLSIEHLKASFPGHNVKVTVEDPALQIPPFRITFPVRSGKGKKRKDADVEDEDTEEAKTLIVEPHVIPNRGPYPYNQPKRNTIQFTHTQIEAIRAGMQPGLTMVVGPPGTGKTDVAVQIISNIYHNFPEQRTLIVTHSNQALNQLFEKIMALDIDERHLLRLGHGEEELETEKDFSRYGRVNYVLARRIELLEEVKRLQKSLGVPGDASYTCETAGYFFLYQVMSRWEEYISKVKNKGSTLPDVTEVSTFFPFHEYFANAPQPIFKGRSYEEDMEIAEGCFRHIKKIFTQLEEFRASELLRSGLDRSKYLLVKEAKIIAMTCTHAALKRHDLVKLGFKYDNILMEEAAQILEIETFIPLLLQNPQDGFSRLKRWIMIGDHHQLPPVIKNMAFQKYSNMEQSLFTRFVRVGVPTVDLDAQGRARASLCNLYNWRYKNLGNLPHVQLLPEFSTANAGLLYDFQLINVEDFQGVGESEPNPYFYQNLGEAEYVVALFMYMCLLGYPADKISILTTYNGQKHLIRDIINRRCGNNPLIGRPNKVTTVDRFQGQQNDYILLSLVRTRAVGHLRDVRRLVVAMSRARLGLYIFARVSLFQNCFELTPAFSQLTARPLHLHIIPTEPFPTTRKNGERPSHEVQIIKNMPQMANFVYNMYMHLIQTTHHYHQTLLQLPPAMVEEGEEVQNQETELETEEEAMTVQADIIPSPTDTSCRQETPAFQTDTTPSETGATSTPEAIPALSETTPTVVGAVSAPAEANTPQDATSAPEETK
The experiment in a line: Kd (EC50 corrected by depletion factor). The method in brief: as §1

The target in data set [4] is PABPC4 (UniProt Q13310). The experiment in a line: Kd (EC50 corrected by depletion factor). The method in brief: as §1
PABPC4, sequence (Q13310 whole entry): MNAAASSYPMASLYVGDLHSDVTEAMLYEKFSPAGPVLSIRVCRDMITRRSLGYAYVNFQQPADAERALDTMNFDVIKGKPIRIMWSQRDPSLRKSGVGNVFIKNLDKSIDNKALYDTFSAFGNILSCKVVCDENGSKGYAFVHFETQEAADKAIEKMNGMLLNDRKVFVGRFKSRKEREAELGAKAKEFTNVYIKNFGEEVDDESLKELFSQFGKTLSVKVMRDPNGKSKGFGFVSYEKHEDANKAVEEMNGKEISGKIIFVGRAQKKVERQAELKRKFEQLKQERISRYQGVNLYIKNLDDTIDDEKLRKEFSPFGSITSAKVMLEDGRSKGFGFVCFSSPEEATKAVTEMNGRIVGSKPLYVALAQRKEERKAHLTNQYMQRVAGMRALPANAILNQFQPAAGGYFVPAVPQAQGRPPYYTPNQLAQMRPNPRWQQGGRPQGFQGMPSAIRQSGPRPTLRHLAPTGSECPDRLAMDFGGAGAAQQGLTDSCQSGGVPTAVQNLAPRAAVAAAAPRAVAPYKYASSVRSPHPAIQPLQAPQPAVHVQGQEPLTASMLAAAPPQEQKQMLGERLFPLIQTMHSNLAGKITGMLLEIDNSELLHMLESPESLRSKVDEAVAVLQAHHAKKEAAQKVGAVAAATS

The EC50 is the midpoint of the concentration-response curve. In general, Kd refers to the equilibrium constant for the complex coming apart. Low values mean a tighter complex, high ones a looser complex. As to AAUAAA, the EC50 was 1180 nM in data set [1] and 667 nM in data set [2]. The results for the Kd in data set [3] and in data set [4] were 213 nM and 1530 nM, respectively.
On to CUGUCCU, for which the EC50 in data set [1] turned out to be 554 nM; in data set [2], 6720 nM.
As for UAUUUAU, the concentration for a half-maximal effect (EC50) in data set [1] is 380 nM; in data set [2] it was 555 nM. The Kd in data set [3] was 320 nM; in data set [4] it was 7840 nM.
